# Assay results as given in US12186436B2, “Triblock copolymer stabilizers for the formation of nanoparticles encapsulating soluble biologics, therapeutics, and imaging agents” (The Trustees of Princeton University, priority 2018, dated 2025).
# Assay: Release of biologic from nanoparticles in release buffer (fluorescence of soluble biologic after 100 kDa ultrafiltration)
# Type: physicochemical
# Settings: nanoparticles made by Process 2
# Protocol: Release can be studied by diluting the final concentrated nanoparticle solution after ultrafiltration into the desired release buffer. The solutions can then be incubated under the required conditions of temperature and agitation. A suitable method to separate nanoparticles from released biologic can be employed at periodic time points to evaluate the released fraction. In one embodiment, ultrafiltration with a 100 kDa molecular weight cut-off is used to separate released biologic from the nanoparticles containing biologic that is still encapsulated.
# Residual acetone and unencapsulated biologic were removed by rinsing on a 100 kDa Amicon ultrafilter that had been pre-blocked to prevent non-specific adsorption. The nanoparticle solution was concentrated to around 15-20 mg/ml and rinsed with deionized water twice using a volume that was about 3-4 times the concentrated volume. The flow-through streams were analyzed by fluorescence to determine encapsulation efficiency. The nanoparticles were resuspended in the indicated release buffer and placed on a shaker table at 37° C. for release. […] Particle size was characterized by Dynamic Light Scattering (DLS) using a Zetasizer Nano ZS.
# Temperature was controlled in the centrifugation process to either 5° C. or 20° C. […] The flow-through streams were analyzed by fluorescence to determine encapsulation efficiency. […]
substance,measurement,value
lysozyme,time for lysozyme release to reach 90%,20 to 30 h
